Measured values: article doi:10.1101/2025.03.05.641625

Key:
[1] = target: SARS-CoV-2 core RTC with nsp13.1 bound (RTC-nsp13.1) (SARS-CoV-2) (UniProt P0DTD1); assay: magnetic tweezers
[2] = target: SARS-CoV-2 core replication-transcription complex (nsp12-polymerase, nsp7, nsp8) (SARS-CoV-2) (UniProt P0DTD1); assay: magnetic tweezers

“SARS-CoV-2 nsp13-helicase (wild type) (from UniProt P0DTD1 5325-5925) (enzyme)” was tested, and the Ka [1] was 4.6e+08 M⁻¹ and the Ka [2] was 2.3e+08 M⁻¹.
